Measured values published in patent publication US20230002480A1.

Legend:
Assay in all cases: cell-based or functional assay
[1] = molecular target: HIV-1 Env of pseudovirus SC05_8C11_2344 (HIV-1)
[2] = molecular target: HIV-1 Env of pseudovirus QH0692.42 (HIV-1)
[3] = molecular target: HIV-1 Env of pseudovirus CNE21 (HIV-1)
[4] = molecular target: HIV-1 Env of pseudovirus CNE8 (HIV-1)
[5] = molecular target: HIV-1 Env of pseudovirus HIV-001428-2.42 (HIV-1)
[6] = molecular target: HIV-1 Env of pseudovirus 1012_11_TC21_3257 (HIV-1)
[7] = molecular target: HIV-1 Env of pseudovirus Du172.17 (HIV-1)
[8] = molecular target: HIV-1 Env of pseudovirus Du422.1 (HIV-1)
[9] = molecular target: HIV-1 Env of pseudovirus CNE17 (HIV-1)
[10] = molecular target: HIV-1 Env of pseudovirus X1193_c1 (HIV-1)
[11] = molecular target: HIV-1 Env of pseudovirus Ce2060_G9 (HIV-1)
[12] = molecular target: HIV-1 Env of pseudovirus Q842.d12 (HIV-1)
[13] = molecular target: HIV-1 Env of pseudovirus 1006_11_C3_1601 (HIV-1)
[14] = molecular target: HIV-1 Env of pseudovirus ZM214M.PL15 (HIV-1)
[15] = molecular target: HIV-1 Env of pseudovirus 7030102001E5(Rev-) (HIV-1)
[16] = molecular target: HIV-1 Env of pseudovirus R1166.c01 (HIV-1)
[17] = molecular target: HIV-1 Env of pseudovirus CNE30 (HIV-1)
[18] = molecular target: HIV-1 Env of pseudovirus T255-34 (HIV-1)
[19] = molecular target: HIV-1 Env of pseudovirus T257-31 (HIV-1)
[20] = molecular target: HIV-1 Env of pseudovirus REJO4541.67 (HIV-1)
[21] = molecular target: HIV-1 Env of pseudovirus R3265.c06 (HIV-1)
[22] = molecular target: HIV-1 Env of pseudovirus 6244_13_B5_4576 (HIV-1)
[23] = molecular target: HIV-1 Env of pseudovirus 211-9 (HIV-1)
[24] = molecular target: HIV-1 Env of pseudovirus 1394C9G1(Rev-) (HIV-1)
[25] = molecular target: HIV-1 Env of pseudovirus 620345.c01 (HIV-1)
[26] = molecular target: HIV-1 Env of pseudovirus BJOX028000.10.3 (HIV-1)
[27] = molecular target: HIV-1 Env of pseudovirus TRO.11 (HIV-1)
[28] = molecular target: HIV-1 Env of pseudovirus HIV-16845-2.22 (HIV-1)
[29] = molecular target: HIV-1 Env of pseudovirus THRO4156.18 (HIV-1)

N49P7 (antibody)
neutralization IC50 [1]: 0.164 mg/L | neutralization IC80 [1]: 0.403 mg/L | neutralization MPI [1]: 100 | neutralization IC50 [2]: 0.663 mg/L | neutralization IC80 [2]: 2.41 mg/L | neutralization MPI [2]: 100 | neutralization IC50 [3]: 0.756 mg/L | neutralization IC80 [3]: 6.02 mg/L | neutralization MPI [3]: 97 | neutralization IC50 [4]: 0.037 mg/L | neutralization IC80 [4]: 0.125 mg/L | neutralization MPI [4]: 100 | neutralization IC50 [5]: 0.006 mg/L | neutralization IC80 [5]: 0.02 mg/L | neutralization MPI [5]: 100 | neutralization IC50 [6]: 0.046 mg/L | neutralization IC80 [6]: 0.125 mg/L | neutralization MPI [6]: 100 | neutralization IC50 [7]: 0.102 mg/L | neutralization IC80 [7]: 0.668 mg/L | neutralization MPI [7]: 100 | neutralization IC50 [8]: 4.5 mg/L | neutralization IC80 [8]: 19.5 mg/L | neutralization MPI [8]: 93 | neutralization IC50 [9]: 0.126 mg/L | neutralization IC80 [9]: 0.46 mg/L | neutralization MPI [9]: 100 | neutralization IC50 [10]: 0.016 mg/L | neutralization IC80 [10]: 0.06 mg/L | neutralization MPI [10]: 100 | neutralization IC50 [11]: 0.661 mg/L | neutralization IC80 [11]: 2.55 mg/L | neutralization MPI [11]: 100 | neutralization IC50 [12]: 0.021 mg/L | neutralization IC80 [12]: 0.06 mg/L | neutralization MPI [12]: 100 | neutralization IC50 [13]: 0.044 mg/L | neutralization IC80 [13]: 0.158 mg/L | neutralization MPI [13]: 100 | neutralization IC50 [14]: 0.213 mg/L | neutralization IC80 [14]: 0.953 mg/L | neutralization MPI [14]: 100 | neutralization IC50 [15]: 0.184 mg/L | neutralization IC80 [15]: 0.832 mg/L | neutralization MPI [15]: 100 | neutralization IC50 [16]: 0.092 mg/L | neutralization IC80 [16]: 0.313 mg/L | neutralization MPI [16]: 100 | neutralization IC50 [17]: 0.18 mg/L | neutralization IC80 [17]: 0.609 mg/L | neutralization MPI [17]: 100 | neutralization IC50 [18]: 0.053 mg/L | neutralization IC80 [18]: 0.262 mg/L | neutralization MPI [18]: 100 | neutralization IC50 [19]: 0.158 mg/L | neutralization IC80 [19]: 0.619 mg/L | neutralization MPI [19]: 100 | neutralization IC50 [20]: 0.015 mg/L | neutralization IC80 [20]: 0.049 mg/L | neutralization MPI [20]: 100 | neutralization IC50 [21]: 0.048 mg/L | neutralization IC80 [21]: 0.282 mg/L | neutralization MPI [21]: 100 | neutralization IC50 [22]: 0.111 mg/L | neutralization IC80 [22]: 0.386 mg/L | neutralization MPI [22]: 100 | neutralization IC50 [23]: 0.22 mg/L | neutralization IC80 [23]: 0.767 mg/L | neutralization MPI [23]: 100 | neutralization IC50 [24]: 3.84 mg/L | neutralization IC80 [24]: 21.1 mg/L | neutralization MPI [24]: 94 | neutralization IC50 [25]: 23.2 mg/L | neutralization IC80 [25]: 47.9 mg/L | neutralization MPI [25]: 82 | neutralization IC50 [26]: 0.02 mg/L | neutralization IC80 [26]: 0.123 mg/L | neutralization MPI [26]: 100 | neutralization IC50 [27]: 0.044 mg/L | neutralization IC80 [27]: 0.16 mg/L | neutralization MPI [27]: 100 | neutralization IC50 [28]: 0.95 mg/L | neutralization IC80 [28]: 3.94 mg/L | neutralization MPI [28]: 100 | neutralization IC50 [29]: 2.34 mg/L | neutralization IC80 [29]: 12.4 mg/L | neutralization MPI [29]: 99

PG9 (antibody)
IC50, titer in TZM.bl cells [1]: 0.892 mg/L | IC80, titer in TZM.bl cells [1]: 4.28 mg/L | IC50, titer in TZM.bl cells [2]: > 50 mg/L | IC80, titer in TZM.bl cells [2]: > 50 mg/L | IC50, titer in TZM.bl cells [3]: 0.038 mg/L | IC80, titer in TZM.bl cells [3]: 0.094 mg/L | IC50, titer in TZM.bl cells [5]: 0.101 mg/L | IC80, titer in TZM.bl cells [5]: 0.25 mg/L | IC50, titer in TZM.bl cells [6]: 0.172 mg/L | IC80, titer in TZM.bl cells [6]: 0.605 mg/L | IC50, titer in TZM.bl cells [7]: 0.606 mg/L | IC80, titer in TZM.bl cells [7]: 1.6 mg/L | IC50, titer in TZM.bl cells [8]: 0.614 mg/L | IC80, titer in TZM.bl cells [8]: 10.4 mg/L | IC50, titer in TZM.bl cells [9]: 0.21 mg/L | IC80, titer in TZM.bl cells [9]: 0.484 mg/L | IC50, titer in TZM.bl cells [11]: 0.045 mg/L | IC80, titer in TZM.bl cells [11]: 0.172 mg/L | IC50, titer in TZM.bl cells [12]: 0.023 mg/L | IC80, titer in TZM.bl cells [12]: 0.081 mg/L | IC50, titer in TZM.bl cells [13]: 0.366 mg/L | IC80, titer in TZM.bl cells [13]: 1.91 mg/L | IC50, titer in TZM.bl cells [14]: > 50 mg/L | IC80, titer in TZM.bl cells [14]: > 50 mg/L | IC50, titer in TZM.bl cells [15]: > 50 mg/L | IC80, titer in TZM.bl cells [15]: > 50 mg/L | IC50, titer in TZM.bl cells [17]: > 50 mg/L | IC80, titer in TZM.bl cells [17]: > 50 mg/L | IC50, titer in TZM.bl cells [19]: 0.037 mg/L | IC80, titer in TZM.bl cells [19]: 0.124 mg/L | IC50, titer in TZM.bl cells [20]: 0.012 mg/L | IC80, titer in TZM.bl cells [20]: 0.163 mg/L | IC50, titer in TZM.bl cells [22]: > 50 mg/L | IC80, titer in TZM.bl cells [22]: > 50 mg/L | IC50, titer in TZM.bl cells [24]: 0.029 mg/L | IC80, titer in TZM.bl cells [24]: 0.114 mg/L | IC50, titer in TZM.bl cells [27]: 43.2 mg/L | IC80, titer in TZM.bl cells [27]: > 50 mg/L | IC50, titer in TZM.bl cells [28]: 4.4 mg/L | IC80, titer in TZM.bl cells [28]: > 50 mg/L | IC50, titer in TZM.bl cells [29]: 24.5 mg/L | IC80, titer in TZM.bl cells [29]: > 50 mg/L

PG16 (antibody)
IC50, titer in TZM.bl cells [1]: 0.07 mg/L | IC80, titer in TZM.bl cells [1]: 1.62 mg/L | IC50, titer in TZM.bl cells [2]: > 50 mg/L | IC80, titer in TZM.bl cells [2]: > 50 mg/L | IC50, titer in TZM.bl cells [3]: 0.007 mg/L | IC80, titer in TZM.bl cells [3]: 0.026 mg/L | IC50, titer in TZM.bl cells [5]: 0.039 mg/L | IC80, titer in TZM.bl cells [5]: 0.25 mg/L | IC50, titer in TZM.bl cells [6]: 0.03 mg/L | IC80, titer in TZM.bl cells [6]: 0.219 mg/L | IC50, titer in TZM.bl cells [7]: 0.033 mg/L | IC80, titer in TZM.bl cells [7]: 0.213 mg/L | IC50, titer in TZM.bl cells [8]: 0.261 mg/L | IC80, titer in TZM.bl cells [8]: 33.8 mg/L | IC50, titer in TZM.bl cells [9]: 0.029 mg/L | IC80, titer in TZM.bl cells [9]: 0.132 mg/L | IC50, titer in TZM.bl cells [11]: 0.075 mg/L | IC80, titer in TZM.bl cells [11]: 1.71 mg/L | IC50, titer in TZM.bl cells [12]: 0.032 mg/L | IC80, titer in TZM.bl cells [12]: > 0.25 mg/L | IC50, titer in TZM.bl cells [13]: > 50 mg/L | IC80, titer in TZM.bl cells [13]: > 50 mg/L | IC50, titer in TZM.bl cells [14]: > 50 mg/L | IC80, titer in TZM.bl cells [14]: > 50 mg/L | IC50, titer in TZM.bl cells [15]: > 50 mg/L | IC80, titer in TZM.bl cells [15]: > 50 mg/L | IC50, titer in TZM.bl cells [17]: > 50 mg/L | IC80, titer in TZM.bl cells [17]: > 50 mg/L | IC50, titer in TZM.bl cells [19]: 0.007 mg/L | IC80, titer in TZM.bl cells [19]: 0.021 mg/L | IC50, titer in TZM.bl cells [20]: 0.039 mg/L | IC80, titer in TZM.bl cells [20]: 13.4 mg/L | IC50, titer in TZM.bl cells [22]: > 50 mg/L | IC80, titer in TZM.bl cells [22]: > 50 mg/L | IC50, titer in TZM.bl cells [24]: 0.008 mg/L | IC80, titer in TZM.bl cells [24]: 0.056 mg/L | IC50, titer in TZM.bl cells [27]: 1.92 mg/L | IC80, titer in TZM.bl cells [27]: 49.6 mg/L | IC50, titer in TZM.bl cells [28]: 3.13 mg/L | IC80, titer in TZM.bl cells [28]: > 50 mg/L | IC50, titer in TZM.bl cells [29]: 6.83 mg/L | IC80, titer in TZM.bl cells [29]: > 50 mg/L
